# In US20240139251A1 (CYTOARM, published 2024):
# B1: anti-PSMA Fab/anti-CD3 scFv BsAb (bispecific antibody, not shown: small tags and cut ends)
# light: DIVMTQSPSSLSASVGDRVTITCKASQDVGTAVDWYQQKPGKAPKLLIYWASTRHTGVPDRFTGSGSGTDFTLTISSLQPEDFADYFCQQYNSYPLTFGGGTKLEIKRTVAAPSVFIFPPSDEQLKSGTASVVCLLNNFYPREAKVQWKVDNALQSGNSQESVTEQDSKDSTYSLSSTLTLSKADYEKHKLYACEVTHQGLSSPVTKSFNRGEC
# heavy (part 1 of 2): EVQLVQSGAEVKKPGASVKISCKTSGYTFTEYTIHWVKQASGKGLEWIGNINPNNGGTTYNQKFEDRATLTVDKSTSTAYMELSSLRSEDTAVYYCAAGWNFDYWGQGTTVTVSSASTKGPSVFPLAPSSKSTSGGTAALGCLVKDYFPEPVTVSWNSGALTSGVHTFPAVLQSSGLYSLSSVVTVPSSSLGTQTYICNVNHKPSNTKVDKRVEPKSCDK
# heavy (part 2 of 2): not shown
# B2: anti-CD3 Fab/anti-PSMA scFv BsAb (bispecific antibody, not shown: small tags and cut ends)
# light: not shown
# heavy (part 1 of 2): not shown
# heavy (part 2 of 2): GGGSGGGEVQLVQSGAEVKKPGASVKISCKTSGYTFTEYTIHWVKQASGKGLEWIGNINPNNGGTTYNQKFEDRATLTVDKSTSTAYMELSSLRSEDTAVYYCAAGWNFDYWGQGTTVTVSSAGGGGSGGGGSGGGGSDIVMTQSPSSLSASVGDRVTITCKASQDVGTAVDWYQQKPGKAPKLLIYWASTRHTGVPDRFTGSGSGTDFTLTISSLQPEDFADYFCQQYNSYPLTFGGGTKLEIKRHHHHHH
# B3: anti-PSMA scFv/anti-CD3 scFv BsAb (bispecific antibody, not shown: small tags and cut ends)
# chain (part 1 of 2): DIVMTQSPSSLSASVGDRVTITCKASQDVGTAVDWYQQKPGKAPKLLIYWASTRHTGVPDRFTGSGSGTDFTLTISSLQPEDFADYFCQQYNSYPLTFGGGTKLEIKRGGGGSGGGGSGGGGSEVQLVQSGAEVKKPGASVKISCKTSGYTFTEYTIHWVKQASGKGLEWIGNINPNNGGTTYNQKFEDRATLTVDKSTSTAYMELSSLRSEDTAVYYCAAGWNFDYWGQGTTVTVSSA
# chain (part 2 of 2): not shown
# B4: anti-CD3 knob/anti-PSMA hole BsAb (bispecific antibody)
# light 1: not shown
# heavy 1: not shown
# light 2: RIVMTQSPSSLSASVGDRVTITCKASQDVGTAVDWYQDKPGKAPKLLIYWASTRHTGVPDRFTGSGSGTDFTLTISSLQPEDFADYFCQQYNSYPLTFGGGTKLEIKRTVAAPSVFIFPPSDEQLKSGTASVVCYLNNFYPREAKVQWKVDNALQSGNSQESVTEQDSKDSTYSLWSTLTLSKADYEKHKLYACEVTHQGLSSPVTKSFNRGECGGGSYPYDVPDYA
# heavy 2: not shown
# Legend:
# [1] = target: T1, prostate specific membrane antigen (PSMA) on LNCaP cells (human, UniProt Q04609 1-750); experiment: cell-based or functional assay
# [2] = target: T1, prostate specific membrane antigen …; experiment: cell-based or functional assay; remark: listed apart in the source
binder,measurement,setting,value
B1,"Cytotoxic effect of BsAb T cells on LNCaP cells, Effect cell/Target cell 3:1",[1],64.8%
same,"Cytotoxic effect of BsAb T cells on LNCaP cells, Effect cell/Target cell 5:1",[1],87%
same,"Cytotoxic effect of BsAb T cells on LNCaP cells, Effect cell/Target cell 10:1",[1],97.3%
same,"Cell killing of LNCaP cells by T cells of Example 2 further modified with BsAb, E/T ratio 10:1",[2],> 90%
same,"Cell killing of LNCaP cells by murine OKT3 T cells modified with BsAb, E/T ratio 10:1",[2],~100%
B2,"Cytotoxic effect of BsAb T cells on LNCaP cells, Effect cell/Target cell 3:1",[1],30.3%
same,"Cytotoxic effect of BsAb T cells on LNCaP cells, Effect cell/Target cell 5:1",[1],62.6%
same,"Cytotoxic effect of BsAb T cells on LNCaP cells, Effect cell/Target cell 10:1",[1],82.2%
same,"Cell killing of LNCaP cells by T cells of Example 2 further modified with BsAb, E/T ratio 10:1",[2],> 90%
same,"Cytotoxicity on LNCaP cells of T cells differentiated by BsAb, E/T ratio 5:1",[2],~51.3%
same,"Cytotoxicity on LNCaP cells of T cells differentiated by BsAb, E/T ratio 10:1",[2],~61%
same,"Cytotoxicity on LNCaP cells of T cells differentiated by and further modified with BsAb, E/T ratio 5:1",[2],~78.2%
same,"Cytotoxicity on LNCaP cells of T cells differentiated by and further modified with BsAb, E/T ratio 10:1",[2],~81.8%
B3,"Cytotoxic effect of BsAb T cells on LNCaP cells, Effect cell/Target cell 3:1",[1],53.8%
same,"Cytotoxic effect of BsAb T cells on LNCaP cells, Effect cell/Target cell 5:1",[1],83.4%
same,"Cytotoxic effect of BsAb T cells on LNCaP cells, Effect cell/Target cell 10:1",[1],97.6%
same,"Cell killing of LNCaP cells by T cells of Example 2 further modified with BsAb, E/T ratio 10:1",[2],> 90%
B4,"Cytotoxic effect of BsAb T cells on LNCaP cells, Effect cell/Target cell 3:1",[1],43.1%
same,"Cytotoxic effect of BsAb T cells on LNCaP cells, Effect cell/Target cell 5:1",[1],58.6%
same,"Cytotoxic effect of BsAb T cells on LNCaP cells, Effect cell/Target cell 10:1",[1],70.4%
same,"Cell killing of LNCaP cells by T cells of Example 2 further modified with BsAb, E/T ratio 10:1",[2],> 90%
